Earlier results on one substance are cited in PMC4567469.

The series has as its target Ran (Homo sapiens) (UniProt P62826).

In the case of “Leader protein (LE) (from UniProt P03304)”, the dissociation constant (Kd) – broadly, the concentration at which binding is half-saturated – was 3 nM.
